The RNAGym collection of RNA variant scans (doi:10.1093/molbev/msab373)

B1: Azoarcus group I ribozyme (parent)
chain: GUGCCUUGCGCCGGGAAACCACGCAAGGGAUGGUGUCAAAUUCGGCGAAACCUAAGCGCCCGCCCGGGCGUAUGGCAACGCCGAGCCAAGCUUCGGCGCCUGCGCCGAUGAAGGUGUAGAGACUAGACGGCACCCACCUAAGGCAAACGCUAUGGUGAAGGCAUAGUCCAGGGAGUGGCGAAAGUCACACAAACCGG

Variants of: B1
Assay: reverse-splicing fitness (ratio to wild type); higher = more active; in vitro selection; Mg2+ level not given
How it was run: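 An in vitro group I ribozyme library with randomized positions was T7-transcribed and gel-purified. In triplicate, 10 pmol RNA in EPPS pH 7.5 was reacted with 50 pmoles of a 30-nt RNA substrate for 1 h at 37 °C across several added MgCl2 levels (1–48 mM), then stopped with EDTA. Products were reverse transcribed from a substrate-complementary primer, PCR-amplified and sequenced (HiSeq 4000). Fitness is a variant's read proportion after selection over that before, normalised to wild type.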

Q: Which reverse-splicing fitness does the source give for C82A A111C A120G A145U C150G C169G U176C here?
A: The reverse-splicing fitness was 0.00484.

Q: With C82A A111C A120G A145U C150G C169G U176A as the variant, how does the reverse-splicing fitness read?
A: Its reverse-splicing fitness is 0.00626.

Q: For C82A A111C A120G A145U C150A C169A, which reverse-splicing fitness is on record?
A: Its reverse-splicing fitness is 0.00893.

Q: For C82A A111C A120G A145U C150A C169U, which reverse-splicing fitness is on record?
A: The reverse-splicing fitness was 0.00736.

Q: Which reverse-splicing fitness does the source give for C82A A111C A120G A145U C150A C169G here?
A: Its reverse-splicing fitness is 0.00777.

Q: With C82A A111C A120G C150G C169G U176C as the variant, how does the reverse-splicing fitness read?
A: Its reverse-splicing fitness is 0.00493.

Q: With C82A A111C A120G C150G C169G U176G as the variant, how does the reverse-splicing fitness read?
A: Its reverse-splicing fitness is 0.00538.

Q: Which reverse-splicing fitness does the source give for C82A A111C A120G C150G C169G U176A here?
A: Its reverse-splicing fitness is 0.00664.

Q: Which reverse-splicing fitness does the source give for C82A A111C A120G A145G C169G U176A here?
A: Its reverse-splicing fitness is 0.0211.

Q: Which reverse-splicing fitness does the source give for C82A A111C A120G A145G C169G U176G here?
A: Its reverse-splicing fitness is 0.00491.

Q: For C82A A111C A120G A145G C169G U176C, which reverse-splicing fitness is on record?
A: The reverse-splicing fitness was 0.0266.

Q: With C82A A111C A120U A145G C150U C169U as the variant, how does the reverse-splicing fitness read?
A: Its reverse-splicing fitness is 0.00603.

Q: With C82A A111C A120U A145G C150U C169A as the variant, how does the reverse-splicing fitness read?
A: The reverse-splicing fitness was 0.00691.

Q: With C82A A111C A120U A145G C150U C169G as the variant, how does the reverse-splicing fitness read?
A: The reverse-splicing fitness was 0.0065.

Q: With C82A A111C A120G C150G U176C as the variant, how does the reverse-splicing fitness read?
A: Its reverse-splicing fitness is 0.0155.

Q: For C82A A111C A120G C150G U176A, which reverse-splicing fitness is on record?
A: Its reverse-splicing fitness is 0.00868.

Q: For C82A A111C A120G C150G U176G, which reverse-splicing fitness is on record?
A: The reverse-splicing fitness was 0.00292.

Q: For C82A A111C A120G A145U C150A C169A U176C, which reverse-splicing fitness is on record?
A: The reverse-splicing fitness was 0.0113.

Q: For C82A A111C A120G A145U C150A C169A U176G, which reverse-splicing fitness is on record?
A: The reverse-splicing fitness was 0.00621.

Q: For C82A A111C A120G A145U C150A C169A U176A, which reverse-splicing fitness is on record?
A: The reverse-splicing fitness was 0.0115.

Q: For C82A A111C A120G U176A, which reverse-splicing fitness is on record?
A: Its reverse-splicing fitness is 0.0144.

Q: With C82A A111C A120G U176C as the variant, how does the reverse-splicing fitness read?
A: Its reverse-splicing fitness is 0.0255.

Q: For C82A A111C A120G U176G, which reverse-splicing fitness is on record?
A: Its reverse-splicing fitness is 0.00584.

Q: For C82A A111C A120U A145C C150G C169G U176G, which reverse-splicing fitness is on record?
A: The reverse-splicing fitness was 0.00318.

Q: Which reverse-splicing fitness does the source give for C82A A111C A120U A145C C150G C169G U176C here?
A: Its reverse-splicing fitness is 0.00325.

Q: With C82A A111C A120U A145C C150G C169G U176A as the variant, how does the reverse-splicing fitness read?
A: Its reverse-splicing fitness is 0.00291.

Q: With C82A A111C A120U A145C C150G C169U U176G as the variant, how does the reverse-splicing fitness read?
A: The reverse-splicing fitness was 0.00285.

Q: Which reverse-splicing fitness does the source give for C82A A111C A120U A145C C150G C169U U176A here?
A: Its reverse-splicing fitness is 0.00398.

Q: Which reverse-splicing fitness does the source give for C82A A111C A120U A145C C150G C169U U176C here?
A: The reverse-splicing fitness was 0.00347.

Q: Which reverse-splicing fitness does the source give for C82A A111C A120G A145U C150G C169U here?
A: The reverse-splicing fitness was 0.00788.

Q: Which reverse-splicing fitness does the source give for C82A A111C A120G A145U C150G C169G here?
A: Its reverse-splicing fitness is 0.00749.

Q: Which reverse-splicing fitness does the source give for C82A A111C A120G A145U C150G C169A here?
A: The reverse-splicing fitness was 0.00851.

Q: For C82A A111C A120U A145G C169A, which reverse-splicing fitness is on record?
A: Its reverse-splicing fitness is 0.00372.

Q: For C82A A111C A120U A145G C169G, which reverse-splicing fitness is on record?
A: The reverse-splicing fitness was 0.00415.

Q: With C82A A111C A120U A145G C169U as the variant, how does the reverse-splicing fitness read?
A: The reverse-splicing fitness was 0.00493.

Q: Which reverse-splicing fitness does the source give for C82A A111C A120U A145C C150U here?
A: Its reverse-splicing fitness is 0.00922.

Q: For C82A A111C A120U A145C C150A, which reverse-splicing fitness is on record?
A: Its reverse-splicing fitness is 0.00399.

Q: With C82A A111C A120U A145C C150G as the variant, how does the reverse-splicing fitness read?
A: Its reverse-splicing fitness is 0.00708.

Q: For C82A A111C A120G A145G C150G C169A U176A, which reverse-splicing fitness is on record?
A: The reverse-splicing fitness was 0.0133.

Q: Which reverse-splicing fitness does the source give for C82A A111C A120G A145G C150G C169A U176G here?
A: Its reverse-splicing fitness is 0.00771.

Q: For C82A A111C A120G A145G C150G C169A U176C, which reverse-splicing fitness is on record?
A: The reverse-splicing fitness was 0.0113.

Q: Which reverse-splicing fitness does the source give for C82A A111C A120U A145U C150A C169U U176A here?
A: Its reverse-splicing fitness is 0.00378.
